{
  "source": "patent US20220153863A1",
  "about": "(published 2022)",
  "binders": {"B1": {"name": "B029_2D4 scFv displayed on phage (monoclonal phage clone) (scFv, V domains shown)", "VH": "EVQLLESGGGLVQPGGSLRLSCAASGFTFSSYAMSWVRQAPGKGLEWVSAISGSGDSTYYADSVKGRFTISRDNSKNTLYLQMNSLRAEDTAVYYCARDVDSFEGGMDVWGQGTTVTVSS", "VL": "not shown"}, "B2": {"name": "B029_1A6 scFv displayed on phage (monoclonal phage clone) (scFv, V domains shown)", "VH": "EVQLLESGGGLVQPGGSLRLSCAASGFTFSNYAMSWVRQAPGKGLEWVSAISGSGGSTYYADSVKGRFTISRDNSKNTLYLQMNSLRAEDTAVYYCARGGLVLSPWGQGTLVTVSS", "VL": "EIVLTQSPGTLSLSPGERATLSCRASQSVSSNSLAWYQQKPGQAPRLLIYDASSRATGIPDRFSGSGSGTDFTLTISRLEPEDFAVYYCQQYESSPLTFGQGTKVEIK"}, "B3": {"name": "B029_2H1 scFv displayed on phage (monoclonal phage clone) (scFv, V domains shown)", "VH": "EVQLLESGGGLVQPGGSLRLSCAASGFTFTDYAMSWVRQAPGKGLEWVSWISGSGGSTKYADSVKGRFTISRDNSKNTLYLQMNSLRAEDTAVYYCAKCYDILTGYSIDYGMDVWGQGTTVTVSS", "VL": "B2 VL with N32T, S33Y, D51G, E93S, S95A, L97F"}, "B4": {"name": "B029_1H1 scFv displayed on phage (monoclonal phage clone) (scFv, V domains shown)", "VH": "EVQLLESGGGLVQPGGSLRLSCAASGFTFSSYAMSWVRQAPGKGLEWVSEIDGEGDSTKYADSVKGRFTISRDNSKNTLYLQMNSLRAEDTAVYYCAKEYYDIFDGTDVWGQGTTVTVSS", "VL": "not shown"}, "B5": {"name": "B029_1G7 scFv displayed on phage (monoclonal phage clone) (scFv, V domains shown)", "VH": "EVQLLESGGGLVQPGGSLRLSCAASGFTFTDSAMSWVRQAPGKGLEWVSDIDGSGSGGGTYYADSVKGRFTISRDNSKNTLYLQMNSLRAEDTAVYYCATDRGWGTFDFWGQGTLVTVSS", "VL": "not shown"}, "B6": {"name": "B029_1A7 scFv displayed on phage (monoclonal phage clone) (scFv, V domains shown)", "VH": "EVQLLESGGGLVQPGGSLRLSCAASGFTFSSYWMSWVRQAPGKGLEWVSDISGSGGSTYYADSVKGRFTISRDNSKNTLYLQMNSLRAEDTAVYYCASLPDSSGYYHWFDPWGQGTLVTVSS", "VL": "not shown"}, "B7": {"name": "B029_1A7 full-length human IgG1 (antibody, V domains shown)", "VH": "B6 VH", "VL": "not shown"}},
  "note": "Where a chain is given by its changes, count along the chain named.",
  "data": [
    {"target": "T1, PRAME peptide, amino acids Arg310-Asn331 of PRAME, conjugated to biotin or BSA (UniProt P78395 310-331, conjugated to either biotin or bovine serum albumin (BSA); site not stated)", "T1 construct": "range 310-331", "T1 peptide (looked up)": "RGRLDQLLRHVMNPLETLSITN", "assay": "ELISA with monoclonal phage supernatants", "text": "184 PRAME binding phage clones yielded 35 membrane target hits with 6 unique sequences. Clones with unique antibody sequences were chosen for further analysis.", "values": [
      {"binder": "B1", "binding result": "binds"},
      {"binder": "B2", "binding result": "binds"},
      {"binder": "B3", "binding result": "binds"},
      {"binder": "B4", "binding result": "binds"},
      {"binder": "B5", "binding result": "binds"},
      {"binder": "B6", "binding result": "binds"}
    ]},
    {"target": "T2, PRAME (Preferentially Expressed Antigen in Melanoma) on PRAME+ cells (human, UniProt P78395 1-509)", "T2 construct": "whole, on cells; Endogenous PRAME on the THP-1 human cell line; also called THP-1 cells", "T2 sequence (P78395 whole entry)": "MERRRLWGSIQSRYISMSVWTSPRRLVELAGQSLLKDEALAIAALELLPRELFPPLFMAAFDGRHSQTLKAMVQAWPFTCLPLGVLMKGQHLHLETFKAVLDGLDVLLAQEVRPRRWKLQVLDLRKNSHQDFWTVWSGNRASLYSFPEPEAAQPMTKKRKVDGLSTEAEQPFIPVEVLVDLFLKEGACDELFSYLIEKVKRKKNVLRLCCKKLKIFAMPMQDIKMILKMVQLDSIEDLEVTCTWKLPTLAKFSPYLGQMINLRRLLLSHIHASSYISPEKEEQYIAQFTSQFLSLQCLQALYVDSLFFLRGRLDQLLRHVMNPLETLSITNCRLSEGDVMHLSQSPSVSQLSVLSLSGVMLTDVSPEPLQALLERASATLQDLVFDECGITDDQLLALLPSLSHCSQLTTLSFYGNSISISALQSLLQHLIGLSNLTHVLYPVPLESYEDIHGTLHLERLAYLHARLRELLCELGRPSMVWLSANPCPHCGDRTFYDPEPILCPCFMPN", "assay": "flow cytometry, titrated antibody on THP-1 cells", "text": "MPA1 (Pankov et al., 2017), a rabbit anti-PRAME polyclonal antibody was included as reference for comparison.", "units": {"EC50": "nM"}, "values": [
      {"binder": "B7", "EC50": 1.45}
    ]}
  ]
}
